Assays:
Experiment in all cases: pull-down binding Z-score (relative to library population); higher = stronger binding
[1] = test system: G-clamp-N3 (biotin conjugate); settings: RNA library: Library-1 (pre-miRNA loops + repeats)
Outline: (§1)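 Streptavidin beads bearing 100 pmol of a biotin-conjugated small molecule were incubated for 60 min at 25 °C with 1 μg of heat-folded, Cy5- or Cy3-end-labelled RNA library in phosphate/NaCl/KCl buffer. Hot SDS eluted the RNA that stayed bound after three washes, and this RNA was hybridised for 20 h at 55.5 °C to a DNA barcode microarray. Binding was expressed as a Z-score against the library mean and standard deviation, after subtraction of a beads-only signal and trimmed averaging of barcoded replicate probes.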

[2] = test system: TO-N3-2 (biotin conjugate); settings: RNA library: Library-2
Outline: as §1

TO-N3 (biotin conjugate) = settings: RNA library: Library-2
Outline: as §1

[3] = test system: TO-3-N3 (biotin conjugate); settings: RNA library: Library-2
Outline: as §1

[4] = test system: TO-3-N3-2 (biotin conjugate); settings: RNA library: Library-2
Outline: as §1

| Sequence | pull-down binding Z-score [1] | pull-down binding Z-score [2] | pull-down binding Z-score (TO-N3 (biotin conjugate)) | pull-down binding Z-score [3] | pull-down binding Z-score [4] |
| --- | --- | --- | --- | --- | --- |
| GAGAGUGCUGUCUGAAUGCAAUGC [hsa-mir-500a] | 1.08 | 0.766 | 0.89 | 0.797 | 0.291 |
| UUCACAGACUCUCCAAAAGUCUGAA [hsa-mir-4670] | -1.33 | -0.533 | -0.543 | -0.362 | -0.404 |
| UGCUUUUUGUUUCUAACAAAGCA [hsa-mir-4679-2] | -0.591 | -1.25 | 0.0252 | 0.272 | -0.407 |
| AUUGCACGUGUGUGAGGCGGGUGCAGU [hsa-mir-33b] | 0.513 | 0.592 | 0.7 | 0.626 | 0.102 |
| AGUGAGCUGAGAUCACGCAACU [hsa-mir-1273f] | 0.617 | 0.629 | 0.206 | -0.37 | 0.00609 |
| UGAAUUGAAAUGCGUUACAUUCA [hsa-mir-95] | -0.13 | 0.088 | -0.0852 | 0.0702 | -0.0666 |
| UGUCAUUACUUUUAAUGGUA [hsa-mir-548h-1] | -1.35 | -1.24 | -0.56 | -0.328 | -0.357 |
| UUGAACUUCAUUUCUCAUGCUCA [hsa-mir-6870] | -1.6 | 0.145 | -0.104 | -0.278 | 0.277 |
| CACUCCCGUGCUUGUCCGAGGAGGGAGG [hsa-mir-149] | 1.29 | 2.78 | 2.63 | 1.78 | 0.731 |
| GGAUAAGAAUCAGUCAC [hsa-mir-217] | -0.462 | -0.147 | -0.415 | -0.334 | 0.259 |
| AUAGCACAAAGUCUUAUGGUACUGU [hsa-mir-3169] | 1.12 | -0.178 | 0.199 | 0.174 | 0.253 |
| GUGAGAGAUGCUUCUAGAUCCAGGAGGCAGACCUCAA [hsa-mir-4325] | -0.658 | 0.879 | 0.822 | 0.524 | 0.123 |
| CUCAAUGUAGUCUUGUAAGGAACAGGUUGAAG [hsa-mir-595] | 0.711 | 0.908 | 0.268 | -0.166 | 0.34 |
| GCCAUCUGGUUGUGACAUCACUGAUGGC [hsa-mir-7155] | -0.231 | 0.128 | 0.932 | 1.09 | 0.0839 |
| CCCAUAUAAUAUUAGGGG [hsa-mir-4483] | 2.5 | -0.667 | -0.783 | -0.469 | 0.176 |
| CUGCAGUGAGCGAUCGGUGCUCUGGGG [hsa-mir-503] | 1.34 | 1.07 | 0.798 | 0.176 | 0.308 |
| UUGAUGUCAGAAUGAGGUGUACCAA [hsa-mir-4714] | 1.29 | -0.099 | -0.148 | -0.499 | 0.1 |
| GCGGGAGCCAGGCCGC [hsa-mir-3185] | 3.26 | 0.896 | -0.0208 | -0.123 | 0.0586 |
| AGAUGAAAUGCCUUUGAUUU [hsa-mir-3658] | -1.49 | -0.505 | -0.715 | -0.497 | -0.388 |
| CCUGUAUGUCUCCCCGCAGCACCGUCAUCGU [hsa-mir-6774] | -1.39 | 0.832 | 0.785 | 0.498 | 0.182 |
| GAACACUAUUCCAUUGUGUUC [hsa-mir-588] | 0.0194 | -1.31 | -1.33 | -0.971 | -0.701 |

| Sequence | pull-down binding Z-score [1] | pull-down binding Z-score [2] | pull-down binding Z-score (TO-N3 (biotin conjugate)) | pull-down binding Z-score [3] | pull-down binding Z-score [4] |
| --- | --- | --- | --- | --- | --- |
| CACGUGCUGCUUGUAUAGACAUGAG [hsa-mir-3659] | 0.468 | 0.528 | 1.11 | 0.88 |  |
| CCUCCCCCAGUGCCAGG [hsa-mir-3196] | -0.591 | 0.352 | -0.106 | -0.253 | -0.331 |
| UCAUUUUCCUUAAAAAAUGA [hsa-mir-3128] | -1.07 |  | -1.09 | -0.529 | -0.469 |
| GACAUUGCCAGAGGAUGGGCAGCAGAC [hsa-mir-6855] | 2 | 1.17 | 0.788 |  | 0.334 |
| UGGUUGGUUGGUUGGUUGGUUGGU [G4_(UGGU)6] | 1.53 |  |  |  |  |
| UUUAUGUGAACUAAAAUAUAAA [hsa-mir-513c] | -1.49 | -1 |  | -0.547 | -0.21 |
| CGCCCGACUUCGGGG [hsa-mir-4767] | 0.767 | 0.0319 | -0.314 | -0.34 |  |
| UUUGAAGUGUUCUAAAUGGUUCAAA [hsa-mir-424] | 1.09 | -1.05 | -0.738 | -0.532 |  |
| UUCAGUUUCCUUACUGGUAA [hsa-mir-302e] | -0.769 | -0.299 |  | -0.394 | -0.353 |
| GUACUGGGUCUCUCUGGUUAGACCAGAUCUGAGCCUGGGAGCUCUCUGGCUAACUAGGGAACCCACUGC [HIV_2014_Siegfried_nucs_8982_9173_4] | 0.055 |  |  |  |  |
| GUGGAAGUGCCCACUGGUUCCA [hsa-mir-194-2] | -0.472 | 1.32 |  | 0.425 | 0.341 |
| UGUGGACAAGGGCCUUGUCUUAGACAGUCACU [hsa-mir-4318] | -0.432 |  | 0.983 | 0.603 | 0.359 |
| UGUUCACGUGGAGAGGAGUUAAACA [hsa-mir-499b] | 0.339 |  | 0.423 | 0.0485 | 0.375 |
| CACGGUGUCUGCGGGAGGAGACCAUG [hsa-mir-4757] | -0.814 | 0.821 | 0.828 | 0.515 |  |
| UGGGUUGGGUUGGGUUGGGUUGGGUUGGGU [G4_(UGGGU)6] | 1.62 |  |  |  |  |
| UGGGGUUGGGGUUGGGGUUGGGGUUGGGGUUGGGGU [G4_(UGGGGU)6] | 1.14 |  |  |  |  |
| UGGGGUUGGGGUUGGGGUUGGGGUUGGGGUUGGGGUUGGGGUUGGGGU [G4_(UGGGGU)8] | 1.45 |  |  |  |  |
| GGACCAGCCCAAAGGCCAGGCCUGACCC [hsa-mir-4780] | -0.253 | 1.62 |  | 0.125 | 0.11 |
| GUCUCUCUGGUUAGACCAGAUCUGAGCCUGGGAGCUCUCUGGCUAACUAGGGAAC [HIV_2014_Siegfried_nucs_1_753_1] | -0.404 |  |  |  |  |
| UGGUUGGUUGGUUGGUUGGUUGGUUGGUUGGU [G4_(UGGU)8] | 0.443 |  |  |  |  |
| UGGGUUGGGUUGGGUUGGGUUGGGUUGGGUUGGGUUGGGU [G4_(UGGGU)8] | 0.596 |  |  |  |  |
